{"source": "the Human Domainome abundance scans (Beltran et al. 2025)", "parents": {"B1": {"name": "Nanos homolog 2, residues 63 to 115; numbered along this chain, P60321 (parent)", "chain": "CNFCKHNGESRHVYSSHQLKTPDGVVVCPILRHYVCPVCGATGDQAHTLKYCP"}}, "note": "± gives the uncertainty stated by the source."}
{"variants_of": "B1", "assay": "abundance fitness (aPCA) (normalised: wild type 0, dead -1); higher = more abundant; growth selection in yeast, the domain comes from the species named", "details": "Homo sapiens"}
{"variant": "H12S", "abundance fitness": "0.126 ± 0.066"}
{"variant": "H12Y", "abundance fitness": "-0.101 ± 0.13"}
{"variant": "H12L", "abundance fitness": "-0.036 ± 0.11"}
{"variant": "H12G", "abundance fitness": "0.056 ± 0.084"}
{"variant": "H12C", "abundance fitness": "-0.06 ± 0.066"}
{"variant": "H12Q", "abundance fitness": "-0.013 ± 0.11"}
{"variant": "H12E", "abundance fitness": "0.226 ± 0.063"}
{"variant": "H12V", "abundance fitness": "-0.091 ± 0.08"}
{"variant": "H12D", "abundance fitness": "0.188 ± 0.085"}
{"variant": "H12K", "abundance fitness": "0.096 ± 0.14"}
{"variant": "H12I", "abundance fitness": "-0.043 ± 0.16"}
{"variant": "H12R", "abundance fitness": "-0.049 ± 0.059"}
{"variant": "H12F", "abundance fitness": "-0.031 ± 0.14"}
{"variant": "H12W", "abundance fitness": "-0.148 ± 0.14"}
{"variant": "H12M", "abundance fitness": "-0.012 ± 0.078"}
{"variant": "S10T", "abundance fitness": "-0.248 ± 0.12"}
{"variant": "S10P", "abundance fitness": "0.02 ± 0.078"}
{"variant": "S10W", "abundance fitness": "-0.442 ± 0.086"}
{"variant": "S10Q", "abundance fitness": "0.066 ± 0.11"}
{"variant": "S10H", "abundance fitness": "0.022 ± 0.08"}
{"variant": "S10R", "abundance fitness": "0.003 ± 0.076"}
{"variant": "S10G", "abundance fitness": "0.012 ± 0.065"}
{"variant": "S10D", "abundance fitness": "-0.158 ± 0.14"}
{"variant": "S10F", "abundance fitness": "-0.251 ± 0.082"}
{"variant": "S10A", "abundance fitness": "-0.172 ± 0.1"}
{"variant": "S10L", "abundance fitness": "-0.194 ± 0.059"}
{"variant": "S10C", "abundance fitness": "-0.321 ± 0.099"}
{"variant": "S10N", "abundance fitness": "-0.198 ± 0.14"}
{"variant": "S10V", "abundance fitness": "-0.296 ± 0.083"}
{"variant": "S10K", "abundance fitness": "0.079 ± 0.11"}
{"variant": "S10E", "abundance fitness": "0.025 ± 0.1"}
{"variant": "S10Y", "abundance fitness": "-0.328 ± 0.16"}
{"variant": "S10I", "abundance fitness": "-0.149 ± 0.069"}
{"variant": "Y14A", "abundance fitness": "-0.165 ± 0.058"}
{"variant": "Y14G", "abundance fitness": "-0.109 ± 0.076"}
{"variant": "Y14E", "abundance fitness": "-0.089 ± 0.099"}
{"variant": "Y14L", "abundance fitness": "-0.125 ± 0.071"}
{"variant": "Y14T", "abundance fitness": "0.011 ± 0.081"}
{"variant": "Y14M", "abundance fitness": "-0.274 ± 0.11"}
{"variant": "Y14H", "abundance fitness": "-0.226 ± 0.14"}
{"variant": "Y14K", "abundance fitness": "-0.133 ± 0.087"}
{"variant": "Y14C", "abundance fitness": "0.036 ± 0.11"}
{"variant": "Y14Q", "abundance fitness": "0.002 ± 0.11"}
{"variant": "Y14V", "abundance fitness": "-0.011 ± 0.085"}
{"variant": "Y14W", "abundance fitness": "0.208 ± 0.12"}
{"variant": "Y14R", "abundance fitness": "-0.153 ± 0.074"}
{"variant": "Y14I", "abundance fitness": "-0.18 ± 0.15"}
{"variant": "Y14D", "abundance fitness": "-0.213 ± 0.13"}
{"variant": "P22W", "abundance fitness": "-0.321 ± 0.17"}
{"variant": "P22K", "abundance fitness": "0.306 ± 0.13"}
{"variant": "P22Y", "abundance fitness": "-0.121 ± 0.086"}
{"variant": "P22E", "abundance fitness": "-0.184 ± 0.1"}
{"variant": "P22C", "abundance fitness": "0.002 ± 0.15"}
{"variant": "P22L", "abundance fitness": "-0.067 ± 0.096"}
{"variant": "P22I", "abundance fitness": "-0.158 ± 0.13"}
{"variant": "P22S", "abundance fitness": "0.037 ± 0.069"}
{"variant": "P22T", "abundance fitness": "-0.084 ± 0.092"}
{"variant": "P22R", "abundance fitness": "-0.079 ± 0.075"}
{"variant": "P22H", "abundance fitness": "-0.107 ± 0.19"}
{"variant": "P22D", "abundance fitness": "-0.112 ± 0.1"}
{"variant": "P22G", "abundance fitness": "-0.041 ± 0.084"}
{"variant": "P22V", "abundance fitness": "-0.053 ± 0.069"}
{"variant": "P22N", "abundance fitness": "-0.12 ± 0.22"}
{"variant": "P22F", "abundance fitness": "-0.383 ± 0.14"}
{"variant": "P22M", "abundance fitness": "-0.129 ± 0.076"}
{"variant": "P22A", "abundance fitness": "-0.048 ± 0.09"}
{"variant": "H6G", "abundance fitness": "-0.011 ± 0.056"}
{"variant": "H6T", "abundance fitness": "-0.091 ± 0.094"}
{"variant": "H6P", "abundance fitness": "-0.277 ± 0.12"}
{"variant": "H6E", "abundance fitness": "-0.027 ± 0.091"}
{"variant": "H6N", "abundance fitness": "-0.003 ± 0.11"}
{"variant": "H6K", "abundance fitness": "0.158 ± 0.059"}
{"variant": "H6S", "abundance fitness": "0.039 ± 0.072"}
{"variant": "H6C", "abundance fitness": "-0.099 ± 0.11"}
{"variant": "H6D", "abundance fitness": "-0.093 ± 0.1"}
{"variant": "H6W", "abundance fitness": "-0.451 ± 0.11"}
{"variant": "H6Q", "abundance fitness": "0.011 ± 0.12"}
{"variant": "H6R", "abundance fitness": "0.078 ± 0.05"}
{"variant": "H6L", "abundance fitness": "-0.096 ± 0.088"}
{"variant": "H6I", "abundance fitness": "-0.062 ± 0.081"}
{"variant": "H6A", "abundance fitness": "-0.011 ± 0.07"}
{"variant": "H6F", "abundance fitness": "-0.147 ± 0.11"}
{"variant": "H6M", "abundance fitness": "-0.047 ± 0.1"}
{"variant": "S15I", "abundance fitness": "-0.258 ± 0.1"}
{"variant": "S15N", "abundance fitness": "-0.034 ± 0.093"}
{"variant": "S15V", "abundance fitness": "-0.157 ± 0.073"}
{"variant": "S15Q", "abundance fitness": "0.034 ± 0.11"}
{"variant": "S15K", "abundance fitness": "-0.099 ± 0.079"}
{"variant": "S15F", "abundance fitness": "-0.135 ± 0.1"}
{"variant": "S15G", "abundance fitness": "0.051 ± 0.098"}
{"variant": "S15W", "abundance fitness": "-0.333 ± 0.1"}
{"variant": "S15Y", "abundance fitness": "0.068 ± 0.12"}
{"variant": "S15C", "abundance fitness": "-0.158 ± 0.13"}
{"variant": "S15L", "abundance fitness": "-0.002 ± 0.071"}
{"variant": "S15P", "abundance fitness": "-0.326 ± 0.13"}
{"variant": "S15T", "abundance fitness": "-0.595 ± 0.072"}
{"variant": "S15H", "abundance fitness": "-0.095 ± 0.11"}
{"variant": "E9L", "abundance fitness": "-0.277 ± 0.079"}
{"variant": "E9N", "abundance fitness": "-0.153 ± 0.1"}
{"variant": "E9Q", "abundance fitness": "-0.116 ± 0.14"}
{"variant": "E9C", "abundance fitness": "0.065 ± 0.11"}
{"variant": "E9F", "abundance fitness": "-0.259 ± 0.072"}
{"variant": "E9W", "abundance fitness": "-0.495 ± 0.15"}
{"variant": "E9D", "abundance fitness": "-0.298 ± 0.1"}
{"variant": "E9G", "abundance fitness": "-0.274 ± 0.056"}
{"variant": "E9P", "abundance fitness": "-0.25 ± 0.1"}
{"variant": "E9T", "abundance fitness": "-0.154 ± 0.087"}
{"variant": "E9R", "abundance fitness": "-0.125 ± 0.066"}
{"variant": "E9A", "abundance fitness": "-0.103 ± 0.061"}
{"variant": "E9K", "abundance fitness": "-0.007 ± 0.079"}
{"variant": "E9M", "abundance fitness": "-0.116 ± 0.073"}
{"variant": "E9V", "abundance fitness": "-0.189 ± 0.061"}
{"variant": "E9S", "abundance fitness": "-0.26 ± 0.089"}
{"variant": "V13M", "abundance fitness": "0.056 ± 0.092"}
{"variant": "V13N", "abundance fitness": "0.064 ± 0.099"}
{"variant": "V13E", "abundance fitness": "-0.058 ± 0.094"}
{"variant": "V13L", "abundance fitness": "-0.05 ± 0.074"}
{"variant": "V13S", "abundance fitness": "-0.008 ± 0.069"}
{"variant": "V13T", "abundance fitness": "0.157 ± 0.085"}
{"variant": "V13Y", "abundance fitness": "-0.125 ± 0.11"}
{"variant": "V13W", "abundance fitness": "-0.04 ± 0.11"}
{"variant": "V13R", "abundance fitness": "-0.06 ± 0.065"}
{"variant": "V13Q", "abundance fitness": "-0.068 ± 0.1"}
{"variant": "V13H", "abundance fitness": "-0.087 ± 0.22"}
{"variant": "V13P", "abundance fitness": "-0.477 ± 0.13"}
{"variant": "V13G", "abundance fitness": "-0.007 ± 0.087"}
{"variant": "V13K", "abundance fitness": "0.113 ± 0.078"}
{"variant": "V13A", "abundance fitness": "-0.084 ± 0.077"}
{"variant": "V13I", "abundance fitness": "-0.195 ± 0.15"}
{"variant": "V13D", "abundance fitness": "-0.013 ± 0.13"}
{"variant": "V13C", "abundance fitness": "0 ± 0.07"}
{"variant": "N7K", "abundance fitness": "0.021 ± 0.085"}
{"variant": "N7M", "abundance fitness": "0.173 ± 0.12"}
{"variant": "N7A", "abundance fitness": "-0.213 ± 0.11"}
{"variant": "N7R", "abundance fitness": "-0.036 ± 0.083"}
{"variant": "N7Q", "abundance fitness": "-0.263 ± 0.11"}
{"variant": "N7C", "abundance fitness": "-0.316 ± 0.097"}
{"variant": "N7H", "abundance fitness": "-0.036 ± 0.13"}
{"variant": "N7T", "abundance fitness": "-0.122 ± 0.1"}
{"variant": "N7D", "abundance fitness": "-0.513 ± 0.1"}
{"variant": "N7V", "abundance fitness": "-0.364 ± 0.073"}
{"variant": "N7I", "abundance fitness": "-0.432 ± 0.17"}
{"variant": "N7S", "abundance fitness": "-0.054 ± 0.061"}
{"variant": "N7F", "abundance fitness": "-0.241 ± 0.11"}
{"variant": "N7G", "abundance fitness": "-0.144 ± 0.1"}
{"variant": "N7W", "abundance fitness": "-0.47 ± 0.056"}
{"variant": "N7P", "abundance fitness": "-0.764 ± 0.093"}
{"variant": "N7L", "abundance fitness": "-0.311 ± 0.062"}
{"variant": "S16V", "abundance fitness": "-0.562 ± 0.095"}
{"variant": "S16I", "abundance fitness": "-0.406 ± 0.17"}
{"variant": "S16G", "abundance fitness": "-0.035 ± 0.073"}
{"variant": "S16A", "abundance fitness": "-0.117 ± 0.063"}
{"variant": "S16H", "abundance fitness": "-0.287 ± 0.12"}
{"variant": "S16R", "abundance fitness": "-0.135 ± 0.067"}
{"variant": "S16L", "abundance fitness": "-0.456 ± 0.074"}
{"variant": "S16P", "abundance fitness": "-0.459 ± 0.16"}
{"variant": "S16K", "abundance fitness": "-0.262 ± 0.11"}
{"variant": "S16Y", "abundance fitness": "-0.489 ± 0.088"}
{"variant": "S16D", "abundance fitness": "-0.08 ± 0.13"}
{"variant": "S16F", "abundance fitness": "-0.594 ± 0.14"}
{"variant": "S16Q", "abundance fitness": "-0.042 ± 0.055"}
{"variant": "S16E", "abundance fitness": "-0.163 ± 0.099"}
{"variant": "S16N", "abundance fitness": "0.023 ± 0.12"}
{"variant": "S16M", "abundance fitness": "-0.047 ± 0.1"}
{"variant": "S16C", "abundance fitness": "0.077 ± 0.14"}
{"variant": "S16T", "abundance fitness": "-0.335 ± 0.12"}
{"variant": "S16W", "abundance fitness": "-0.557 ± 0.08"}
